Experiment [1] concerns the target GLP-1R of mouse pancreatic β-cells (mouse (endogenous in ddY mouse pancreas)) (UniProt O35659).
In experiment [2] the target is Recombinant human GLP-1R protein (human) (UniProt P43220). The experiment can be described thus: SPR; Biacore T200; recombinant human GLP-1R (0.5 μM) immobilized on a CM5 sensor chip; peptides injected at four-fold serial dilutions (0, 0.1-100 nM); n = 3; 1:1 interaction model. A general note: Surface plasmon resonance follows binding to a sensor surface in real time, without labels.

As a reminder, the Kd is the constant that tells how readily two partners part at equilibrium.

Chain of Recombinant human GLP-1R protein (human) (P43220 24-463): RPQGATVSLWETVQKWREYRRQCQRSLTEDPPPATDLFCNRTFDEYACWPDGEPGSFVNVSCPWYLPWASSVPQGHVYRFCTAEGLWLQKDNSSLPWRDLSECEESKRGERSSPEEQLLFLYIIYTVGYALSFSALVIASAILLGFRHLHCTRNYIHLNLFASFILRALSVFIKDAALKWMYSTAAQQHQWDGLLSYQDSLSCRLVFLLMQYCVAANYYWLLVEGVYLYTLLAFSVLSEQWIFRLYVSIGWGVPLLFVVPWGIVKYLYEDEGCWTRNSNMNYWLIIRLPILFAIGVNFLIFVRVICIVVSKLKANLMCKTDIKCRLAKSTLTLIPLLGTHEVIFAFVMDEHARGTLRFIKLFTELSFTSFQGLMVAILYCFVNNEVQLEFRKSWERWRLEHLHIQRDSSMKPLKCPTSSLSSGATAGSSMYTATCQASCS
Chain of GLP-1R of mouse pancreatic β-cells (mouse (endogenous in ddY mouse pancreas)) (O35659 22-463): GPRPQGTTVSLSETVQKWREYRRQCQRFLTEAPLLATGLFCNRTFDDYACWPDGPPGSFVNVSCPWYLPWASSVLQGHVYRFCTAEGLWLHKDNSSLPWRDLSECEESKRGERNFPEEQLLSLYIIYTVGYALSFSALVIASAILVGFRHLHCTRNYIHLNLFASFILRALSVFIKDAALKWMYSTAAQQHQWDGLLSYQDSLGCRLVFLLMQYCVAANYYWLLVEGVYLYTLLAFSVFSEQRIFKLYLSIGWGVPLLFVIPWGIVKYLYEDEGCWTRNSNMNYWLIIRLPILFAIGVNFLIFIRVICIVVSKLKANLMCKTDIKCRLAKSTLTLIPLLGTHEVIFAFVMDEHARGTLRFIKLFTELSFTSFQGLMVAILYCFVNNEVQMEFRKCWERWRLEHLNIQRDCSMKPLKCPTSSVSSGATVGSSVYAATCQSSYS

On to “I-Ex-4, Ex-4-C40 labeled with IPM at the additional C-terminal Cys (peptide)”, for which the radioactivity in the pancreas 5-120 min after i.v. administration of [^125I]I-Ex-4 to mice (highest at 60 min) (% injected dose per gram tissue) in experiment [1] was determined as 11.3. Further, the Kd in experiment [2] worked out at 28.1 nM.

(Values after publication PMC11901735.)
